B1: Acetylcholine receptor subunit gamma (Homo sapiens), P07510-2 (parent)
chain: MHGGQGPLLLLLLLAVCLGAQGRNQEERLLADLMQNYDPNLRPAERDSDVVNVSLKLTLTNLISLNEREEALTTNVWIEMQWCDYRLRWDPRDYEGLWVLRVPSTMVWRPDIVLENKSQTYSTNEIDLQLSQEDGQTIEWIFIDPEAFTENGEWAIQHRPAKMLLDPAAPAQEAGHQKVVFYLLIQRKPLFYVINIIAPCVLISSVAILIHFLPAKAGGQKCTVAINVLLAQTVFLFLVAKKVPETSQAVPLISKYLTFLLVVTILIVVNAVVVLNVSLRSPHTHSMARGVRKVFLRLLPQLLRMHVRPLAPAAVQDTQSRLQNGSSGWSITTGEEVALCLPRSELLFQQWQRQGLVAAALEKLEKGPELGLSQFCGSLKQAAPAIQACVEACNLIACARHQQSHFDNGNEEWFLVGRVLDRVCFLAMLSLFICGTAGIFLMAHYNRVPALPFPGDPRPYLPSPD
partner: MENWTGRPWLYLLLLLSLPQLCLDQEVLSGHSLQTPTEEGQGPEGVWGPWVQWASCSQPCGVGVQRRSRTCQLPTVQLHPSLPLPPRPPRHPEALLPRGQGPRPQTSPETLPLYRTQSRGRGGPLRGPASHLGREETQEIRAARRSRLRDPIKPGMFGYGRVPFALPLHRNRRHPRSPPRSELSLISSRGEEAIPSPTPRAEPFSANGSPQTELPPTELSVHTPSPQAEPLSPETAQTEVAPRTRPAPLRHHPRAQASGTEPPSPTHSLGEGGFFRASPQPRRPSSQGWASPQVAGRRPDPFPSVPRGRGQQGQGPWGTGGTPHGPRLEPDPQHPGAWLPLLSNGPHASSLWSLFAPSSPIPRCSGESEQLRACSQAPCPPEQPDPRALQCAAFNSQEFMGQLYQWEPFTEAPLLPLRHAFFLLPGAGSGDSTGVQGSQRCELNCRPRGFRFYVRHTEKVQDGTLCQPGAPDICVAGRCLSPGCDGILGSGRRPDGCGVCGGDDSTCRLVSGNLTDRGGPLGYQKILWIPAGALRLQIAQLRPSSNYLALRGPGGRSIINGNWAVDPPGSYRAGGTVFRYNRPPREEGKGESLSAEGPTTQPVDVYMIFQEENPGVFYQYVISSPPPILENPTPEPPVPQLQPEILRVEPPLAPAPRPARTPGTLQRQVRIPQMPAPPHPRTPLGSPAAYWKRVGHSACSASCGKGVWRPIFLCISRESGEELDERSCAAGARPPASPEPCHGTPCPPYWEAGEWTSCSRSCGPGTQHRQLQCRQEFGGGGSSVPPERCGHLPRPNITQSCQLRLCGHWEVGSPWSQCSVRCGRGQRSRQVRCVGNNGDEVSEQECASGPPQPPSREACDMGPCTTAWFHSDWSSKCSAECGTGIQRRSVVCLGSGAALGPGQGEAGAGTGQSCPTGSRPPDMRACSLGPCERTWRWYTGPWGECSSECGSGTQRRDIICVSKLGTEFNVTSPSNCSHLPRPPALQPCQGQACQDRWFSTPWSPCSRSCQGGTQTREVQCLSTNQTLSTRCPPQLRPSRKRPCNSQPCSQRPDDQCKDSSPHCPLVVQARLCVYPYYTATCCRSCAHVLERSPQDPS
B2: EF-hand domain-containing protein 1 (Homo sapiens), Q5JVL4 (parent)
chain: MVSNPVHGLPFLPGTSFKDSTKTAFHRSQTLSYRNGYAIVRRPTVGIGGDRLQFNQLSQAELDELASKAPVLTYGQPKQAPPADFIPAHVAFDKKVLKFDAYFQEDVPMSTEEQYRIRQVNIYYYLEDDSMSVIEPVVENSGILQGKLIKRQRLAKNDRGDHYHWKDLNRGINITIYGKTFRVVDCDQFTQVFLESQGIELNPPEKMALDPYTELRKQPLRKYVTPSDFDQLKQFLTFDKQVLRFYAIWDDTDSMYGECRTYIIHYYLMDDTVEIREVHERNDGRDPFPLLMNRQRVPKVLVENAKNFPQCVLEISDQEVLEWYTAKDFIVGKSLTILGRTFFIYDCDPFTRRYYKEKFGITDLPRIDVSKREPPPVKQELPPYNGFGLVEDSAQNCFALIPKAPKKDVIKMLVNDNKVLRYLAVLESPIPEDKDRRFVFSYFLATDMISIFEPPVRNSGIIGGKYLGRTKVVKPYSTVDNPVYYGPSDFFIGAVIEVFGHRFIILDTDEYVLKYMESNAAQYSPEALASIQNHVRKREAPAPEAESKQTEKDPGVQELEALIDTIQKQLKDHSCKDNIREAFQIYDKEASGYVDRDMFFKICESLNVPVDDSLVKELIRMCSHGEGKINYYNFVRAFSN
partner: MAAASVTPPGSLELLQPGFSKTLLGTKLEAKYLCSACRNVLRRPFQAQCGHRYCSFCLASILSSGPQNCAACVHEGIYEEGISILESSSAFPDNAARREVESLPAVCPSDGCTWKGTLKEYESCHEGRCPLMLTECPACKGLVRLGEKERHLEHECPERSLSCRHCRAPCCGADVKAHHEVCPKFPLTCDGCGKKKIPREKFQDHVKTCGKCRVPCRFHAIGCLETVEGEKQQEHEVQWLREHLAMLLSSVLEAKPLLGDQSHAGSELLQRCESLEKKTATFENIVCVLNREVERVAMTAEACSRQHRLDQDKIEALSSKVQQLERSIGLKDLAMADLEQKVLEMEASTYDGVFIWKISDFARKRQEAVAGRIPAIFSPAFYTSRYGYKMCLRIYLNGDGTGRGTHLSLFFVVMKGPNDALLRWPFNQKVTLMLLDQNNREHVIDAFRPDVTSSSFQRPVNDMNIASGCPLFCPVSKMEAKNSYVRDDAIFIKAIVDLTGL
B3: Inhibin alpha chain (Homo sapiens), P05111 (parent)
chain: MVLHLLLFLLLTPQGGHSCQGLELARELVLAKVRALFLDALGPPAVTREGGDPGVRRLPRRHALGGFTHRGSEPEEEEDVSQAILFPATDASCEDKSAARGLAQEAEEGLFRYMFRPSQHTRSRQVTSAQLWFHTGLDRQGTAASNSSEPLLGLLALSPGGPVAVPMSLGHAPPHWAVLHLATSALSLLTHPVLVLLLRCPLCTCSARPEATPFLVAHTRTRPPSGGERARRSTPLMSWPWSPSALRLLQRPPEEPAAHANCHRVALNISFQELGWERWIVYPPSFIFHYCHGGCGLHIPPNLSLPVPGAPPTPAQPYSLLPGAQPCCAALPGTMRPLHVRTTSDGGYSFKYETVPNLLTQHCACI
partner: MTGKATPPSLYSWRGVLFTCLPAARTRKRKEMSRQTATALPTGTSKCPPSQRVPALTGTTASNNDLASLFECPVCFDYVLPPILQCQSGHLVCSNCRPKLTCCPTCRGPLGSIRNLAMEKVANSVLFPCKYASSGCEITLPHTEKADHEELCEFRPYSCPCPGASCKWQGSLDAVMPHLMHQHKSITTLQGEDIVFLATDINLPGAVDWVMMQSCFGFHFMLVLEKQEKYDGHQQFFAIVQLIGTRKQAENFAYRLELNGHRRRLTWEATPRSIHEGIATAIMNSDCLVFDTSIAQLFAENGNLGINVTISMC
B4: Tribbles homolog 3 (Homo sapiens), Q96RU7 (parent)
chain: MRATPLAAPAGSLSRKKRLELDDNLDTERPVQKRARSGPQPRLPPCLLPLSPPTAPDRATAVATASRLGPYVLLEPEEGGRAYQALHCPTGTEYTCKVYPVQEALAVLEPYARLPPHKHVARPTEVLAGTQLLYAFFTRTHGDMHSLVRSRHRIPEPEAAVLFRQMATALAHCHQHGLVLRDLKLCRFVFADRERKKLVLENLEDSCVLTGPDDSLWDKHACPAYVGPEILSSRASYSGKAADVWSLGVALFTMLAGHYPFQDSEPVLLFGKIRRGAYALPAGLSAPARCLVRCLLRREPAERLTATGILLHPWLRQDPMPLAPTRSHLWEAAQVVPDGLGLDEAREEEGDREVVLYG
partner: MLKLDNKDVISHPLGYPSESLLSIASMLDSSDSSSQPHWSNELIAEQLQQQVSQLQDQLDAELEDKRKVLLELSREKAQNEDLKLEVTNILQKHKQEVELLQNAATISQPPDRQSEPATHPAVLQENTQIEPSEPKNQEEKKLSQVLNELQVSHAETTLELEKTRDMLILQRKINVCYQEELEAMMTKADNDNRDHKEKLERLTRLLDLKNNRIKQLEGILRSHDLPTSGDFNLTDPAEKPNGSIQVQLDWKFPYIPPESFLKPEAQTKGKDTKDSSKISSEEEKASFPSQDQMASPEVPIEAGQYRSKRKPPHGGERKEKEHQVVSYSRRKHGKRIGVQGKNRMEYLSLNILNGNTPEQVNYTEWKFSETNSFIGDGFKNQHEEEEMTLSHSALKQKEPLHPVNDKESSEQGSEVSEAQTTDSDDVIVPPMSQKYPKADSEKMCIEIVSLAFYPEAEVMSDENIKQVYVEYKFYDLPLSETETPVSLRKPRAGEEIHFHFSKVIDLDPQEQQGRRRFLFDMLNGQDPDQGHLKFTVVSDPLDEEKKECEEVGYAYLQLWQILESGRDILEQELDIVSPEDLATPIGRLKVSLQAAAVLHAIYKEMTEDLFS
B5: Nuclear receptor subfamily 0 group B member 1 (Homo sapiens), P51843 (parent)
chain: MAGENHQWQGSILYNMLMSAKQTRAAPEAPETRLVDQCWGCSCGDEPGVGREGLLGGRNVALLYRCCFCGKDHPRQGSILYSMLTSAKQTYAAPKAPEATLGPCWGCSCGSDPGVGRAGLPGGRPVALLYRCCFCGEDHPRQGSILYSLLTSSKQTHVAPAAPEARPGGAWWDRSYFAQRPGGKEALPGGRATALLYRCCFCGEDHPQQGSTLYCVPTSTNQAQAAPEERPRAPWWDTSSGALRPVALKSPQVVCEAASAGLLKTLRFVKYLPCFQVLPLDQQLVLVRNCWASLLMLELAQDRLQFETVEVSEPSMLQKILTTRRRETGGNEPLPVPTLQHHLAPPAEARKVPSASQVQAIKCFLSKCWSLNISTKEYAYLKGTVLFNPDVPGLQCVKYIQGLQWGTQQILSEHTRMTHQGPHDRFIELNSTLFLLRFINANVIAELFFRPIIGTVSMDDMMLEMLCTKI

Variants of: B1
Details: with ADAMTSL4, Q6UY14-3

| Variant | effect of a mutation on the interaction |
| --- | --- |
| R187C | disrupting interaction strength |
| R86C | disrupting interaction strength |
| V107G | disrupting interaction strength |

Variants of: B2
Details: with traf2_human TRAF2, Q12933

| Variant | effect of a mutation on the interaction |
| --- | --- |
| M448T | with no effect |
| T508R | with no effect |
| A394S | disrupting interaction strength |
| P77T | disrupting interaction strength |
| R159W | with no effect |
| R221H | disrupting interaction strength |

Variants of: B3
Details: with SIAH1, Q8IUQ4-2

| Variant | effect of a mutation on the interaction |
| --- | --- |
| A257T | with no effect |
| P43A | with no effect |
| A182D | with no effect |

Variants of: B4
Details: with RPGRIP1, Q96KN7-4

| Variant | effect of a mutation on the interaction |
| --- | --- |
| Q84R | with no effect |

Variants of: B5
Details: with stf1_human NR5A1, Q13285
Chain of stf1_human NR5A1, Q13285 (Q13285 whole entry): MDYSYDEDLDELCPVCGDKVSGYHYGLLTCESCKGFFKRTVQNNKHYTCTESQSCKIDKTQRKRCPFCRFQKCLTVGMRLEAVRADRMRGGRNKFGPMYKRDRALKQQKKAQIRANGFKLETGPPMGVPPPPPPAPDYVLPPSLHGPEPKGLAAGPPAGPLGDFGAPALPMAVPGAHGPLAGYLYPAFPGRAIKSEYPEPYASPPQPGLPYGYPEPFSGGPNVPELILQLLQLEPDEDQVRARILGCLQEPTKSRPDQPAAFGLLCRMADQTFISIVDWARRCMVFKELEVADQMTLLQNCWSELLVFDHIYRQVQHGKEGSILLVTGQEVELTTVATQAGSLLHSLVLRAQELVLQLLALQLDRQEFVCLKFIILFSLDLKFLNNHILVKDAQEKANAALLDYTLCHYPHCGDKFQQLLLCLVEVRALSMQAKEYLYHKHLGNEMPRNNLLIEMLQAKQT

| Variant | effect of a mutation on the interaction |
| --- | --- |
| W105C | with no effect |
